Measured values as given in the supplement of paper PMC12764529.
± gives the half width of the 95% confidence interval.

Assay: folding stability dG unfold from trypsin proteolysis; higher = more stable
Method in brief: (§1)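 K50 was inferred by Bayesian fitting of sequencing counts obtained after protease digestion of designed mini-proteins. Unfolding free energy was derived by comparison with a sequence-predicted unfolded-state K50 and a shared folded-state K50, for each protease or both combined. The mini-proteins were under 80 residues, had no cysteine, were carried in a PA-tagged cDNA display construct, and were kept only if AlphaFold2 dimer inter-PAE exceeded 15.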

| Sequence | folding stability dG unfold [kcal/mol] |
| --- | --- |
| SAGGSATAEELADEIANYMADRHGMEVKKIEITDVDNDRVVFRAEVEMPNPNGKKHTHPFTIEIPVSAGGSA [r15_276_TrROS] | -0.0958 ± 0.17 |
| SAGGSAGGSGYTTTTSTSISLSPTSFTVTTTTTTTDPVTKTTTVTTTTTTVPLPPSLLSLVSSSAGGSAGGS [r12_885_JUSTAS] | 2.21 ± 0.17 |
| SASVEEVIEEAKELAKKLGAYVIVTVYKNNKKIGTYEYPSPSKNSPPTSITIESPDPNYKVKITIYPPGSAG [r14_728_JUSTAS] | 2.53 ± 0.062 |
| SAGGSAGGSAGGMTQEVTLEPLPDGTVKLLSVEAPESTVTVPVKLPGGGEEVRTLPPEALSAGGSAGGSAGG [r7_829_JUSTAS] | -0.0201 ± 0.045 |
| SAGGSAKILEEALEALKKAKPGEEVEIEIEIEVNGKKYRIKVKVTYDEETGKITIEIVEIEELPEESAGGSA [r15_724_TrROS_Hall] | 3.23 ± 0.14 |
| SAGGKLTITLPPGVKEVKIEVDKETNEVKVTVTVEVTDENGKKHKVTRTFTFKLEDGETVTVTVTLPSAGGS [r16_552_TrROS_Hall] | 4.42 ± 0.27 |
| SAGGSAGGSAGGGLGYRTLTGRVEFELNITYLTEDGSPATLNLRFELELRFVVPVPPDYPSAGGSAGGSAGG [r7_926_TrMRF] | 3.7 ± 0.14 |
| SAGGKEVVIVFPLPENFEAEIFIPDRPVVRLENGLLVAVAPENVPALIVIRNPNGEELVLPVELLDLSAGGS [r8_72_TrMRF] | 1.27 ± 0.037 |
| SAGGSAGGSAKEIKLKITKVTFTENEDGTLTATFELEDGYRVTIKFNKKTNKVEIKIEPLPSAGGSAGGSAG [r3_438_TrROS_Hall] | 2.47 ± 0.091 |
| SAGGSAGGSAGGWNYIIFTIRYEFEYKDPNGKTMKHEVEITIIIPIPPIKRDEDGKYKLSAGGSAGGSAGGS [r10_168_TrROS] | 2.31 ± 0.17 |
| SAGGGHMMPNITVDVEEEVFTLPDGSILTRTTVTVTLPNGKKTTVETEYFYDTKTGTVSSKVVKVEASAGGS [r16_166_JUSTAS] | 2.72 ± 0.11 |
| SAGGSAEETIEIEIPLEDLKPRKDGKLTEEEIKERLRKLIEELTGKKPKEITVERDENGTLRITIRSAGGSA [r15_562_TrROS_Hall] | 1.46 ± 0.13 |
| SATFKPGETVTIDELTIDGATITKVTVTVNADGTITITATIKPAPPPPPPPEVVRNPETGKTYPAGEVKDSA [r9_603_TrROS_Hall] | 1.87 ± 0.19 |
| SAGGSAGGSAEYRVVVVPPVPTVLIFVKPDRVYVVDLDPATGRATIRPVNVPPNVLPESLLTSAGGSAGGSA [r18_59_TrMRF] | 1.27 ± 0.02 |
| SAGGSAGGSAGKPEIEMEIETRTVRLPDGYLLRFSRMRITLPDGSKFEFLSVEIIRLEDLSAGGSAGGSAGG [r17_312_TrROS_Hall] | 3.88 ± 0.31 |
| SAVELPPDASITAVTVDPSGSRTVEVEVKTTTAYVYDPATGTTTTVPPGVRTVVTLPADVPVTVSFTSPSAG [r14_385_JUSTAS] | 0.252 ± 0.099 |
| SASLEELLAELPFDAEVETKDEEVVVKITNPENPDPNVSYTFNIPSSSGVPITVNVTEVEGGTKSVKALSAG [r14_401_JUSTAS] | -0.448 ± 0.15 |
| SADGKVKVVVNLRITVTPLSPDGTPQPLPAASIPLVFEGDANDPEAVEQAVRDVLDALAPLFPDAEIVVDSA [r9_1112_TrMRF] | 1.23 ± 0.082 |
| SAGGSAGGSAGSKTPSVLVIEVDANTSIEKILELYKKNYPVGEIRVFTRPDGRKIAVITGSAGGSAGGSAGG [r11_97_TrMRF] | 2.22 ± 0.028 |
| SAGGSAGGSAEEVTVTVKIERTTEDGEKVEETITVTVPAEKLDELKKAAEEAGFTVVEVTPSAGGSAGGSAG [r3_453_TrROS_Hall] | 2.68 ± 0.14 |
| SAGGAPSSSPIPIDLGDPNDEEKLKAEVEAIEKEYAAKGVTPITVERVGENKYRIKIPTGGVATVALSAGGS [r16_703_JUSTAS] | -0.55 ± 0.11 |

| Sequence | folding stability dG unfold [kcal/mol] |
| --- | --- |
| SAGGSAGMMPTKITVTLTLPPDAPDVEAVAERLAAELGVEVSNAEVLEVRRLPDGSREVVIELTLLSAGGSA [r15_654_JUSTAS] | 4.2 ± 0.18 |
| SAGGSAGGSAGDDNKKKPKPKIEIQPVRMTMPFPENGLRIEIDIWVIKDGNIIFMIEWYPSAGGSAGGSAGG [r11_463_TrROS] | 2.92 ± 0.12 |
| SAGGTIIINFTWSDIKDILDYLKDNKDWKITIWMGNKPVEYPLDDLEEILQNIPMPPGQPFWIEITPSAGGS [r16_377_TrROS] | 3.38 ± 0.26 |
| SAGGSAGGSSQRIKIEDIEPPPNGQWRVRIKMPNGKEREVTMPPDKLEIELPPNITDVSLWPVSAGGSAGGS [r20_194_TrROS] | 3.88 ± 0.16 |
| SAGGSAGGSAGMAEKLPSLSLFYLPETGDLVLIREETYVDPNDPDKSIVKQEIYVLPPEYSAGGSAGGSAGG [r17_241_TrMRF] | 0.984 ± 0.051 |
| SAGGSKIHIPIDPESGNFRIKVYPPDEPKEVSIQFKDPDDPEEFMDRAIEEANEYANNGYRVEIEPSAGGSA [r2_118_TrROS] | -0.52 ± 0.3 |
| SAGGEVKVVKAEVTTLPDGRKLVRLLLEVGGKFYPVLIDVHPDGVRITFPDGKTATIKLEDLKNLTWSAGGS [r16_593_TrMRF] | 2.64 ± 0.094 |
| SAGSPVTLELRVTRPRADAATGAPATATETVTVTLPAAVVAAGLSPEEIARLLEAANPGATVELTAVASAGG [r19_110_JUSTAS] | 0.844 ± 0.052 |
| SAGGAPNWKIEKIEIEYPGRKIEVWRHDNMWFIHIPAPPGYPIRIKIKIEPDNGETQTQERTFPIPPPSAGG [r13_191_TrROS] | 1.75 ± 0.061 |
| SAMYKIRLKNGEEIELEGMSIEELEKLFPDVELEIEKVEKVPVVKAPSKEEAEELAKKLPPGAKIIVEDSAG [r14_445_TrROS_Hall] | 0.287 ± 0.14 |
| SAGGSKKVILIAKIPNEDKYLVLIASDSPELVKEAAKKAKKPGFYVLGEMTVEEAVKKLGLPPELFKSAGGS [r16_438_TrMRF] | 1.04 ± 0.03 |
| SAGGSAGGSAGGMTLEIEINGLKVRIEFDEETKELRIEVEPAPPPVVVYEKEKLEEEEESAGGSAGGSAGGS [r10_724_TrROS_Hall] | 1.56 ± 0.078 |
| SMEPGELRLRAKVPLRIVNPDGEEIADIEIEVRSIEELEEAIAEAARELAERLGRPDAPVVIDDIEVEDESA [r9_376_TrMRF] | 0.239 ± 0.19 |
| AVTVTVEPVGDALVVTVDLPRADGSPVRVVALFDPDGTVARVLVARSDPGPPRFVEVPAAPASDPVLLAAGS [r1_301_TrMRF] | 0.23 ± 0.2 |
| SAGGSAGGSAGGDSVQIEFPDNGMTITINPNNGPISIMEPDGKKKTYPVDSPEEALDAISAGGSAGGSAGGS [r10_849_TrROS] | 0.221 ± 0.027 |
| SMTFVLPYPKEGKTITVTYPDLESAVSSSGVATFQDPALLAQVIAALPSSVIVKEIKKNPDGTYTLTVAASA [r9_997_JUSTAS] | 0.773 ± 0.043 |
| SAGGSAKKVVLLTIPPSANLPPNSKLVVKFPNGKEKTYKFNDKPVVILLVTDNNGNFSFGVSVEDKSAGGSA [r15_992_TrMRF] | 1.87 ± 0.063 |
| SAGGSAGGSMTLIGTTTLPSPDGSLVTVDTYKVPGSDELVAKVTTLNGTTWTTETRPLSEFLKSAGGSAGGS [r12_1063_JUSTAS] | 0.188 ± 0.081 |
| SAGGSMPPIVASVVEVRFYRFEEEDRERLEAEVTLKLKDGSTATIRLEFPDLSEEELLKTVEETLLSAGGSA [r2_26_JUSTAS] | 1.78 ± 0.042 |
| SAGGSAGGSAGGKKYKVVSIEKTKDYVRITIYNEETGELKTFTFPPGSTVTIKPGDTLTSAGGSAGGSAGGS [r10_834_TrROS_Hall] | 3.88 ± 0.2 |
| SAGGSVEFEETITDPLKSLEEAKALAEEIEAELKAKGYKVTVTVTVVPPGSVTATITVTTDPAKGKKASAGG [r13_697_JUSTAS] | 0.822 ± 0.063 |

Assay: folding stability dG unfold (combined trypsin and chymotrypsin); higher = more stable
Method in brief: as §1

| Sequence | folding stability dG unfold [kcal/mol] |
| --- | --- |
| SAGGSATAEELADEIANYMADRHGMEVKKIEITDVDNDRVVFRAEVEMPNPNGKKHTHPFTIEIPVSAGGSA [r15_276_TrROS] | 0.226 ± 0.29 |
| SAGGSAGGSGYTTTTSTSISLSPTSFTVTTTTTTTDPVTKTTTVTTTTTTVPLPPSLLSLVSSSAGGSAGGS [r12_885_JUSTAS] | 2.5 ± 0.2 |
| SASVEEVIEEAKELAKKLGAYVIVTVYKNNKKIGTYEYPSPSKNSPPTSITIESPDPNYKVKITIYPPGSAG [r14_728_JUSTAS] | 2.94 ± 0.092 |
| SAGGSAGGSAGGMTQEVTLEPLPDGTVKLLSVEAPESTVTVPVKLPGGGEEVRTLPPEALSAGGSAGGSAGG [r7_829_JUSTAS] | -0.131 ± 0.16 |
| SAGGSAKILEEALEALKKAKPGEEVEIEIEIEVNGKKYRIKVKVTYDEETGKITIEIVEIEELPEESAGGSA [r15_724_TrROS_Hall] | 3.8 ± 0.14 |
| SAGGKLTITLPPGVKEVKIEVDKETNEVKVTVTVEVTDENGKKHKVTRTFTFKLEDGETVTVTVTLPSAGGS [r16_552_TrROS_Hall] | 5.44 ± 0.28 |
| SAGGSAGGSAGGGLGYRTLTGRVEFELNITYLTEDGSPATLNLRFELELRFVVPVPPDYPSAGGSAGGSAGG [r7_926_TrMRF] | 5.37 ± 0.14 |
| SAGGKEVVIVFPLPENFEAEIFIPDRPVVRLENGLLVAVAPENVPALIVIRNPNGEELVLPVELLDLSAGGS [r8_72_TrMRF] | 1.32 ± 0.084 |
| SAGGSAGGSAKEIKLKITKVTFTENEDGTLTATFELEDGYRVTIKFNKKTNKVEIKIEPLPSAGGSAGGSAG [r3_438_TrROS_Hall] | 3.74 ± 0.15 |
| SAGGSAGGSAGGWNYIIFTIRYEFEYKDPNGKTMKHEVEITIIIPIPPIKRDEDGKYKLSAGGSAGGSAGGS [r10_168_TrROS] | 2.79 ± 0.28 |
| SAGGGHMMPNITVDVEEEVFTLPDGSILTRTTVTVTLPNGKKTTVETEYFYDTKTGTVSSKVVKVEASAGGS [r16_166_JUSTAS] | 3.17 ± 0.1 |
| SAGGSAEETIEIEIPLEDLKPRKDGKLTEEEIKERLRKLIEELTGKKPKEITVERDENGTLRITIRSAGGSA [r15_562_TrROS_Hall] | 2.2 ± 0.23 |
| SATFKPGETVTIDELTIDGATITKVTVTVNADGTITITATIKPAPPPPPPPEVVRNPETGKTYPAGEVKDSA [r9_603_TrROS_Hall] | 1.34 ± 0.23 |
| SAGGSAGGSAEYRVVVVPPVPTVLIFVKPDRVYVVDLDPATGRATIRPVNVPPNVLPESLLTSAGGSAGGSA [r18_59_TrMRF] | 1.52 ± 0.056 |
| SAGGSAGGSAGKPEIEMEIETRTVRLPDGYLLRFSRMRITLPDGSKFEFLSVEIIRLEDLSAGGSAGGSAGG [r17_312_TrROS_Hall] | 5.38 ± 0.36 |
| SAVELPPDASITAVTVDPSGSRTVEVEVKTTTAYVYDPATGTTTTVPPGVRTVVTLPADVPVTVSFTSPSAG [r14_385_JUSTAS] | 0.413 ± 0.085 |
| SASLEELLAELPFDAEVETKDEEVVVKITNPENPDPNVSYTFNIPSSSGVPITVNVTEVEGGTKSVKALSAG [r14_401_JUSTAS] | -0.172 ± 0.21 |
| SADGKVKVVVNLRITVTPLSPDGTPQPLPAASIPLVFEGDANDPEAVEQAVRDVLDALAPLFPDAEIVVDSA [r9_1112_TrMRF] | 1.73 ± 0.13 |
| SAGGSAGGSAGSKTPSVLVIEVDANTSIEKILELYKKNYPVGEIRVFTRPDGRKIAVITGSAGGSAGGSAGG [r11_97_TrMRF] | 2.31 ± 0.12 |
| SAGGSAGGSAEEVTVTVKIERTTEDGEKVEETITVTVPAEKLDELKKAAEEAGFTVVEVTPSAGGSAGGSAG [r3_453_TrROS_Hall] | 2.38 ± 0.1 |
| SAGGAPSSSPIPIDLGDPNDEEKLKAEVEAIEKEYAAKGVTPITVERVGENKYRIKIPTGGVATVALSAGGS [r16_703_JUSTAS] | -0.169 ± 0.12 |
